Tested on: MS2 coat protein
Experiment: apparent KD of MS2 coat protein; designed switch direction (-1 OFF switch, 1 ON switch): -1; higher = weaker reporter binding
Procedure, shortened: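 Each step of the titration lasted 0.8–1.5 h at the lowest concentration and 10–20 min at the highest. The protein, SNAP-549-labelled MS2 coat protein, went from 0.7 or 1.5 nM doubling to 3 µM over RNA switches transcribed on Illumina chips by stalled E. coli RNA polymerase. Normalised cluster fluorescence was curve-fitted, and the per-design median over clusters is given as apparent KD.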

[1] = input ligand: microRNA oligo, concentration not stated
[2] = Eterna round: R95, input ligand: microRNA oligo, concentration not stated
[3] = Eterna round: R95, input ligand: FMN 200 uM
[4] = Eterna round: R95, input ligand: none

| Sequence | apparent KD of MS2 coat protein (input ligand: FMN 200 uM) | apparent KD of MS2 coat protein (input ligand: none) | apparent KD of MS2 coat protein [2] | other results |
| --- | --- | --- | --- | --- |
| UAUUCGAUAGGAUAUGCACAUCAUUUGGGAGGUAACAGUGCACAUGAGGAUCACCCAUGUAGAAGGAUCUGGAU [Eternabot (L2) Solution 46] (Eterna round: R97, puzzle: Exclusion 2) | 102 nM | 118 nM | – | – |
| UAUUCGCGAGGAUAUGCAGUCGAGUCCAUUACGUGUCUGGGACUUGAGGAUCACCCAAGUAGAAGGCGUCUCAU [salish99_ex2_r4_642] (Eterna round: R97, puzzle: Exclusion 2) | 124 nM | 123 nM | – | – |
| UAUUGCAAGUGAGGAUAUGACAUGAGGAUCACCCAUGUAAAGGGAGUUGACUAUAUAGCAAGAUAUCAGAAGGCACAACUGUAU [JR_ExcNG2_Sub004] (Eterna round: R96, puzzle: Exclusion NG 2) | 309 nM | 131 nM | – | apparent KD of MS2 coat protein [1]: 114 nM |
| UAUUGCAAGUGAGGAUAUGACAUGAGGAUCACCCAUGUAAAGGGAGUUGGCUAUAUAGCAAGAUAUCAGAAGGCACAACUGUAU [JR_ExcNG2_Sub005] (Eterna round: R96, puzzle: Exclusion NG 2) | 76.7 nM | 64.3 nM | – | apparent KD of MS2 coat protein [1]: 25.9 nM |
| UAUUUAGCAAGCAGAUCCCACAUGAGGAUCACCCAUGUUCUCUGAAAGUACAGAAUUACUGUACAUGCUCGUCUUAU [Winner reversed engineered 33] (Eterna round: R97, puzzle: Sensor, turn-off variant 1) | 108 nM | 130 nM | – | – |
| UAUUUAGCAAGCAGAUCCUACAUGAGGAUCACCCAUGUGCUCUGAACGUACAGAAUUACUGUACGAGCUCGUCUUAU [Winner reversed engineered 29] (Eterna round: R97, puzzle: Sensor, turn-off variant 1) | 166 nM | 198 nM | – | – |
| UAUUUGCAAGCGAGAUCCCACAUGAGGAUCACCCAUGUUCUUUGAAAGUACAGAAUUACUGUACAAGCUCGUCUUAU [Winner reversed engineered 31] (Eterna round: R97, puzzle: Sensor, turn-off variant 1) | 62.6 nM | 73.4 nM | – | – |
| UCAAAGCUAGGAUAUACAUGAGGAUCACCCAUGUUAUCACCCAUCGGGUCUUGCUUUUGUAGAAGGAGCAAUAA [Xeinso] (puzzle: Exclusion 3) | – | – | 25.6 nM | – |
| UCAAGUAUGUAGGAUAUCGAUGUCUUCGGACAUCGAGAAGGACGUACAUGAGGAUCACCCAUGUAACUUGCAUG [Exclusion 6 - B - 10:a] (puzzle: Exclusion 6) | – | – | 55.2 nM | – |
| UCAAGUAUGUAGGAUAUGAUGUGAUUAUACAUAUCAGAAGGACGUACAUGAGGAUCACCCAUGUAACUUGCAUG [Exclusion 6 - B - 12:c] (puzzle: Exclusion 6) | – | – | 59.1 nM | apparent KD of MS2 coat protein [3]: 29.8 nM; apparent KD of MS2 coat protein [4]: 52.6 nM |
| UCAAGUCCAUAGGAUAUCGACCAGUCCUCUGGAUGAGAAGGAUGAACUUGAGGAUCACCCAAGUGGCCGAAUAA [Aesin] (Eterna round: R97, puzzle: Exclusion 6) | 152 nM | 46.3 nM | – | – |
| UCAAUUUUGACAGGAUAUAGUUUUUGUUUUUCUCUAGAAGGGUCUUUGCACAUGAGGAUCACCCAUGUUCUUUUUAUUUGCAUU [JR_ExcNG1_Sub015] (Eterna round: R96, puzzle: Exclusion NG 1) | 62.2 nM | 63.3 nM | – | apparent KD of MS2 coat protein [1]: 42.3 nM |
| UCACGGGACUAAGGAUAUAUGAGUACCAUUUACAUAGAAGGUAGAAUGUUAGAUCAUAAACUAAACAUGAGGAUCACCCAUGUU [JR_ExcNG1_Sub092] (Eterna round: R96, puzzle: Exclusion NG 1) | – | – | – | apparent KD of MS2 coat protein [1]: 15.3 nM |
| UCAUGUCCAGAGGAUAUGUAGCGGAUAAACGCAACAGAAGGCUGGACAUGAGGAUCACCCAUGUGUGCCUUCUA [Exclusion 6 Mod3 of JL of Mod of Letion by ViennaUCT] (Eterna round: R97, puzzle: Exclusion 6) | 81.3 nM | 227 nM | – | – |
| UCCACACAUGAGGAUCACCCAUGUGAGGAUAUCAUGCUUCGUAGUAAACUACGAAGUGUGAGAAGGCACAUGGC [Omei Ex1 D13] (Eterna round: R97, puzzle: Exclusion 1) | 94.7 nM | 24.9 nM | – | – |
| UCCACGUAAGGAUAUGGUCAUUGUGACUUGAGGAUCACCCAAGUUGUGAGCUUCCGUCACCCAGAAGGUGCAUGGU [Oratin] (Eterna round: R97, puzzle: Exclusion 5) | 216 nM | 99.9 nM | – | – |
| UCCAUGUCAGGAUAUCCUAGCGCAAAGUUGCCCGCGCUGCUGGAGAAGGGACAUGAGGAUCACCCAUGUCUACA [EX4 C.10] (Eterna round: R97, puzzle: Exclusion 4) | 76.8 nM | 23.2 nM | – | – |
| UCCCGUGAAGGAUAUGGUUACAGGCACAUGAGGAUCACCCAUGUCACCUCGAAUACCUGAUCAGAAGGUUACUCGA [Eternabot (Original) Solution 40] (Eterna round: R97, puzzle: Exclusion 5) | 20.1 nM | 19.9 nM | – | – |
| UCCGAACAUGAGGAUCACCCAUGUCAGGAUAUAUUAAAGAAAGCCCGCGAAUGUGGGUAUAGAAGGGACAUGAA [Zaatinxe] (Eterna round: R97, puzzle: Exclusion 1) | 15.8 nM | 15.6 nM | – | – |

| Sequence | apparent KD of MS2 coat protein (input ligand: FMN 200 uM) | apparent KD of MS2 coat protein (input ligand: none) | apparent KD of MS2 coat protein [2] | other results |
| --- | --- | --- | --- | --- |
| UCCGCCAAAGGAUAUACUGGGCGUUAAAAUCCUCUUAAAAGACAUGAGGAUCACCCAUGUAGAAGGUUGAGGAA [Isererri] (puzzle: Exclusion 2) | – | – | 201 nM | – |
| UCCUCACAUGAGGAUCACCCAUGUCAGGAUAUACAAGAAAAUAACCGGAAAGAACGGAGUAGAAGGGACAUAAG [Xeontiorer] (puzzle: Exclusion 1) | – | – | 15.6 nM | apparent KD of MS2 coat protein [3]: 27.4 nM; apparent KD of MS2 coat protein [4]: 15.5 nM |
| UCCUUAGCGGUCAGGAUAUACACCCGUUUCUCCUUGUAGAAGGGACAUGAGGAUCACCCAUGUACAGUACAUCU [alecazam64] (Eterna round: R97, puzzle: Brourd's mod of Exclusion 4) | 18.6 nM | 17.6 nM | – | – |
| UCGCUCCGUGUAGGAUAUCGCCGUACUAUACGGCGAGAAGGACAUGAGGAUCACCCAUGUAUGUUAUUAUCACGCGUGGCGCAA [Design 60] (Eterna round: R96, puzzle: Exclusion NG 1) | 21 nM | 22.2 nM | – | apparent KD of MS2 coat protein [1]: 11.5 nM |
| UCGCUCCGUGUAGGAUAUCGCCGUAUGAUGCGGCGAGAAGGACAUGAGGAUCACCCAUGUAUGUUAUUAUCACGCGUGGCGCAA [Design 63] (Eterna round: R96, puzzle: Exclusion NG 1) | 17.4 nM | 16.9 nM | – | apparent KD of MS2 coat protein [1]: 12 nM |
| UCGCUGCGAGGAUAUACAUGAGGAUCACCCAUGUACGGGUCCGGGUCUUUGUCUAUUGGUAGAAGGCGCAGUGA [JL Laongeedie mod 9] (puzzle: Exclusion 3) | – | – | 51.5 nM | – |
| UCGCUGCGAGGAUAUACGUGCGCGCGCUUUCGUUUGCGCGUACAUGAGGAUCACCCAUGUAGAAGGCGCGCUGC [Apr-15 SS2-6] (puzzle: Exclusion 2) | – | – | 12.7 nM | – |
| UCGGCGCGAGGAUAUACGUUUGCGCUUUUUCGUUUUUGCGUACAUGAGGAUCACCCAUGUAGAAGGCGCGCCGC [Apr-15 SS2-17] (puzzle: Exclusion 2) | – | – | 14 nM | – |
| UCGGCGCGAGGAUAUACGUUUGCUUUUUAGGAUCGUGGCGUACAUGAGGAUCACCCAUGUAGAAGGCGCGCCGC [Apr-15 SS2-28] (puzzle: Exclusion 2) | – | – | 12.4 nM | – |
| UCGGCGCGAGGAUAUACGUUUGCUUUUUUUUGUCGUUGCGUACAUGAGGAUCACCCAUGUAGAAGGCGCGCCGC [Apr-15 SS2-23] (puzzle: Exclusion 2) | – | – | 16.8 nM | – |
| UCGGCGCGAGGAUAUGCGGCUCCUGCUUCGGGCCGGAGCGUACAUGAGGAUCACCCAUGUAGAAGGCGCGCCGC [Apr-15 SS2-39] (puzzle: Exclusion 2) | – | – | 10.2 nM | – |
| UCGGCGCGAGGAUAUGCGGCUGCUGCUUCGGGCCGUGGCGUACAUGAGGAUCACCCAUGUAGAAGGCGCGCCGC [Apr-15 SS2-40] (Eterna round: R96, puzzle: Exclusion 2) | 12.9 nM | 14.8 nM | – | apparent KD of MS2 coat protein [1]: 10.4 nM |
| UCGGCGCGAGGAUAUGCGGCUGCUGCUUCGGGCCGUGGCGUACAUGAGGAUCACCCAUGUAGAAGGCGCGCCGC [Apr-15 SS2-40] (puzzle: Exclusion 2) | – | – | 11.3 nM | – |
| UCGGCGCGAGGAUAUGCGGUUCCUCCCUCGGGCCGGAGCGUACAUGAGGAUCACCCAUGUAGAAGGCGCGCCGC [Apr-15 SS2-36] (puzzle: Exclusion 2) | – | – | 11.7 nM | – |
| UCGGCGCGAGGAUAUGCGGUUCCUUCUUCGGGCCGGAGCGUACAUGAGGAUCACCCAUGUAGAAGGCGCGCCGC [Apr-15 SS2-37] (puzzle: Exclusion 2) | – | – | 12.6 nM | – |
| UCGGGCGCAGGAUAUGCCUUCCGGUACAUGAGGAUCACCCAUGUCGGGCAGUGCUGCGGAGUAGAAGGGCGUUGAG [Eternabot (L2) Solution 74] (Eterna round: R97, puzzle: Exclusion 5) | 15.8 nM | 16.6 nM | – | – |
| UCGGUGACAGGAUAUACAUGAGGAUCACCCAUGUUAAGAAGAGAAAGGGCAGGAAGAGGUAGAAGGGUCGCUGU [JL JR_Exclu3_Sub033 mod] (puzzle: Exclusion 3) | – | – | 37.8 nM | – |
| UCGUGAUUAGAGGAUAUAUUUUGAGUCAGAACAAUAGAAGGCUAAACAUGAGGAUCACCCAUGUAUGUGUAAAA [JR_Ex6_Sub063] (Eterna round: R97, puzzle: Exclusion 6) | 184 nM | 26.9 nM | – | – |

— the supplement of paper PMC9170038
